Test results published in publication PMC11077535.

Tests used:
[1] = target: androglobin heme-binding globin domain (circularly permuted globin domain of androglobin) (human); assay: SEC; size exclusion analysis in 150 mM NaCl buffer
[2] = target: androglobin heme-binding globin domain (circularly permuted globin domain of androglobin) (human); assay: SEC; size exclusion analysis in a phosphate buffer, without salt

“androglobin heme-binding globin domain (circularly permuted globin domain of androglobin) (domain or fragment)” was tested. Which stoichiometry N [1] did it give?
The stoichiometry N was 4.

What about the stoichiometry N [2] of the same substance?
Its stoichiometry N is 2.
